The values that follow come from paper PMC8079166 (Biochemical Journal, 2021).

What is called Kd is the concentration at which binding is half-saturated. The low end stands for a tighter complex, the high end for a looser complex. The term stoichiometry N denotes a count of units in the complex or per binding partner.

B7: HIV-1 LAI Nef ΔNΔL (residues 60–158;174–205) (domain or fragment)
chain: AQEEEEVGFPVTPQVPLRPMTYKAAVDLSHFLKEKGGLEGLIHSQRRQDILDLWIYHTQGYFPDWQNYTPGPGVRYPLTFGWCYKLVPVEPDKVEEANKDDPEREVLEWRFDSRLAFHHVARELHPEYFKN
B11: HIV-1 LAI Nef WLΔN (residues 56–205) (domain or fragment)
chain: AWLEAQEEEEVGFPVTPQVPLRPMTYKAAVDLSHFLKEKGGLEGLIHSQRRQDILDLWIYHTQGYFPDWQNYTPGPGVRYPLTFGWCYKLVPVEPDKVEEANKGENTSLLHPVSLHGMDDPEREVLEWRFDSRLAFHHVARELHPEYFKN

Assay [1] deals with HIV-1 LAI Nef, full-length (HIV-1, LAI isolate, UniProt P03406). The assay is described as follows: ITC. (ITC needs no label: the signal is the heat of the interaction.)
Assay [2] addresses B11. The assay is described as follows: ITC.
Assay [3] deals with T1, HIV-1 LAI Nef ΔN (residues 60–205) (HIV-1, LAI isolate, UniProt P03406 60-205). The assay can be described thus: ITC.
Assay [4] deals with B7. The assay can be described thus: ITC.
Assay [5] deals with HIV-1 SF2 Nef, full-length (HIV-1, SF2 isolate, UniProt P03407). The assay is described as follows: ITC.
Assay [6] concerns the target B7. The assay can be described thus: MST.
Assay [7] has as its target B11. The assay is described as follows: MST.
Assay [8] addresses T1, HIV-1 LAI Nef ΔN (residues 60–205). The assay is described as follows: MST.
Assay [9] has as its target p85 subunit of PI3 kinase, nSH2–iSH2–cSH2 fragment (UniProt P27986 322-724). The assay can be described thus: MST.

B1: Fyn SH3 domain R96I (domain or fragment)
chain: not shown
With B1, the Kd in assay [1] worked out at 0.79 µM; in assay [2] it was 7.55 µM; in [3] it was 5.06 µM; in assay [4] it was 3.86 µM; in assay [5], 0.02 µM; in assay [6], 24 ± 8 µM. In addition, the dH in [1] is -9.73 kcal/mol; in [2], -5.14 kcal/mol; in [3] it was -9.49 kcal/mol; in assay [4] it was -8.13 kcal/mol; in assay [5] it was -18.5 kcal/mol. Moreover, the “stoichiometry N” value in [1] stood at 0.93; in [2] it was 1.01; in assay [3] it was 0.87; in assay [4], 0.97; in assay [5], 0.98.

With SSVVGWPTVRERMRRAEPA [Nef fragment containing H1 (residues 8–26)], the dissociation constant (Kd) in assay [7] amounted to 1350 ± 219 µM; in assay [8], 699 ± 252 µM; in assay [6] it was 303 ± 50 µM.

B2: Full-length LAI Nef preincubated with 50 µM Fyn_(R96I) SH3 (complex)
chain 1: […]
chain 2: not shown
modifications: RED-NHS dye label
Turning to B2, binding in assay [9] was characterised by a dissociation constant (Kd) of 135 ± 10 µM.

B3: Fyn SH3 domain, wild type (FynR96) (domain or fragment)
chain: not shown
Take B3: the Kd in [1] turned out to be 58.5 µM; in assay [2], 50.8 µM; in assay [3], 83.3 µM; in assay [4], 24.3 µM; in assay [5] it was 28.7 µM. Besides, the dH in assay [1] is -11 kcal/mol; in assay [2], -3.39 kcal/mol; in assay [3], -8.2 kcal/mol; in assay [4], -3.35 kcal/mol; in assay [5] it was -14.1 kcal/mol.

B4: Full-length LAI Nef preincubated with 50 µM FynR96 SH3 (complex)
chain 1: […]
chain 2: not shown
modifications: RED-NHS dye label
Regarding B4, the Kd in [9] was determined as 141 ± 14 µM.

B5: Fyn SH3 domain R96W (domain or fragment)
chain: not shown
As to B5, the Kd in assay [1] was 1.43 µM; in [2] it was 1.45 µM; in assay [3] it was 1.28 µM; in assay [4] it was 0.78 µM; in assay [5], 0.12 µM. The dH in assay [1] was -12 kcal/mol; in assay [2], -7 kcal/mol; in assay [3], -13.5 kcal/mol; in assay [4], -11.2 kcal/mol; in [5], -13.5 kcal/mol. For the same molecule, the “stoichiometry N” value in [1] is 0.96; in assay [2], 0.94; in assay [3] it was 0.9; in assay [4], 0.98; in assay [5], 0.91.

B6: Full-length LAI Nef preincubated with 50 µM Fyn_(R96W) SH3 (complex)
chain 1: […]
chain 2: not shown
modifications: RED-NHS dye label
As for B6, the Kd in [9] was determined as 161 ± 17 µM.

For B7, the affinity in assay [9], expressed as Kd, was 53 ± 3 µM.

B8: Nef ΔNΔL preincubated with 50 µM Fyn_(R96I) SH3 (complex)
chain 1: AQEEEEVGFPVTPQVPLRPMTYKAAVDLSHFLKEKGGLEGLIHSQRRQDILDLWIYHTQGYFPDWQNYTPGPGVRYPLTFGWCYKLVPVEPDKVEEANKDDPEREVLEWRFDSRLAFHHVARELHPEYFKN
chain 2: not shown
modifications: RED-NHS dye label
B8 had a Kd in [9] of 96 ± 18 µM.

B9: Nef ΔNΔL preincubated with 50 µM FynR96 SH3 (complex)
chain 1: AQEEEEVGFPVTPQVPLRPMTYKAAVDLSHFLKEKGGLEGLIHSQRRQDILDLWIYHTQGYFPDWQNYTPGPGVRYPLTFGWCYKLVPVEPDKVEEANKDDPEREVLEWRFDSRLAFHHVARELHPEYFKN
chain 2: not shown
modifications: RED-NHS dye label
Turning to B9, in assay [9], the Kd worked out at 47 ± 8 µM.

B10: Nef ΔNΔL preincubated with 50 µM Fyn_(R96W) SH3 (complex)
chain 1: AQEEEEVGFPVTPQVPLRPMTYKAAVDLSHFLKEKGGLEGLIHSQRRQDILDLWIYHTQGYFPDWQNYTPGPGVRYPLTFGWCYKLVPVEPDKVEEANKDDPEREVLEWRFDSRLAFHHVARELHPEYFKN
chain 2: not shown
modifications: RED-NHS dye label
In turn, B10 showed an equilibrium dissociation constant (Kd) in assay [9] of 79 ± 16 µM.

In turn, B11 came in with a Kd in assay [9] of 72 ± 8 µM.

B12: Nef WLΔN preincubated with 50 µM Fyn_(R96W) SH3 (complex)
chain 1: AWLEAQEEEEVGFPVTPQVPLRPMTYKAAVDLSHFLKEKGGLEGLIHSQRRQDILDLWIYHTQGYFPDWQNYTPGPGVRYPLTFGWCYKLVPVEPDKVEEANKGENTSLLHPVSLHGMDDPEREVLEWRFDSRLAFHHVARELHPEYFKN
chain 2: not shown
modifications: RED-NHS dye label
As to B12, binding in assay [9] was characterised by a dissociation constant (Kd) of 108 ± 14 µM.

B13: Nef WLΔN preincubated with 50 µM FynR96 SH3 (complex)
chain 1: AWLEAQEEEEVGFPVTPQVPLRPMTYKAAVDLSHFLKEKGGLEGLIHSQRRQDILDLWIYHTQGYFPDWQNYTPGPGVRYPLTFGWCYKLVPVEPDKVEEANKGENTSLLHPVSLHGMDDPEREVLEWRFDSRLAFHHVARELHPEYFKN
chain 2: not shown
modifications: RED-NHS dye label
As to B13, the affinity in [9], expressed as Kd, was 104 ± 11 µM.

B14: Nef WLΔN preincubated with 50 µM Fyn_(R96I) SH3 (complex)
chain 1: AWLEAQEEEEVGFPVTPQVPLRPMTYKAAVDLSHFLKEKGGLEGLIHSQRRQDILDLWIYHTQGYFPDWQNYTPGPGVRYPLTFGWCYKLVPVEPDKVEEANKGENTSLLHPVSLHGMDDPEREVLEWRFDSRLAFHHVARELHPEYFKN
chain 2: not shown
modifications: RED-NHS dye label
As to B14, in assay [9], the Kd was 107 ± 12 µM.
